Source: US20260167721A1 (ABLEXIS, published 2026)

B1: ABL-CD3-66 (antibody, V domains shown)
VH: QVQLQESGPGLVKPSETLSLTCTVSGGSISSYYWSWIRQPAGKGLEWIGRIYASGSTYYNPSLKSRVTMSVDTSKNQFSLKLSSVTAADTAVYYCAREKRSRLYFDYWGQGTLVTVSS
VL: NFMLTQPHSVSESPGKTVTISCTRSSGSIASNYVQWYQQRPGSSPTTVIYEDNQRPSGVPDRFSGSIDSSSNSASLTISGLKTEDEGDYYCQSYDRSNRVFGGGTKLTVL
notes: mAb purified from hybridoma; chimeric AlivaMab IgG (human VH, CH1 and upper hinge; mouse middle hinge, CH2, CH3; human light chain)
B2: ABL-CD3-70 (antibody, V domains shown)
VH: EVQLVESGGGLVKPGGSLRLSCAASGFTFSTYIMNWVRQAPGKGLEWVSSITSSSSYIYYADSVKGRFTISRDNAKNSLYLQMNSLRAEDTAVYYCAREKWELLFFDYWGQGTLVTVSS
VL: NFMLTQPHSVSESPGKTVTISCTRSSGSIASNYVQWYQQRPGSSPTTVIYEDNQRPSGVPDRFSGSIDSSSNSASLTISGLKTEDEADYYCQSYDSSNRVFGGGTKLTVL
notes: as for B1
B3: ABL-CD3-78 (antibody, V domains shown)
VH: EVQLVESGGGLVKPGGSLRLSCAASGFTVSNYSMNWVRQAPGKGLEWVSCISRSSSYIYYADSVKGRFTISRDNAKNSLFLQMNSLRAEDTAVYYCARERWELLYFDYWGQGTLVTVSS
VL: NFMLTQPHSVSESPGKTVTISCTRSSGSIASNYVQWYQQRPGSSPTTVIYEDNQRPSGVPDRFSGSIDSSSNSASLTISGLKTEDEADYYCQSFDGSNRVFGGGTKLTVL
notes: as for B1
B4: ABL-CD3-71 (antibody, V domains shown)
VH: QVQLQESGPGLVKPSETLSLTCTVSGGSINSYYWSWIRQPAGKGLEWIGRIYTSGSTNYNPSLKSRVTMSVDTSKKQFSLKLSSVTAADTAVYYCARERISRLYFDYWGQGILVTVSS
VL: NFMLTQPHSVSESPGKTVTISCTRSSGSIASNYVQWYQQRPGSSPTTVIYEDNQRPSGVPDRFSGSIDSSSNSASLTISGLKTEDEADYYCQSYDRSNRVFGGGTKLTVL
notes: as for B1
B5: ABL-CD3-67 (antibody, V domains shown)
VH: EVQLVESGGGLVKPGGSLRLSCAASGFTVSSYSMNWVRQAPGKGLEWVSSISRSSSYIYYADSVKGRFTISRDNAKNSLFLQMNSLRAEDTAVYYCARERWELLYFDYWGQGTLVTVSS
VL: NFMLTQPHSVSESPGKTVTISCTRSSGSIASNYVQWYRQRPGSSPTTVIYEDNQRPSGVPDRFSGAIDSSSTSASLTISGLKTEDEADYYCQSYDSSNRVFGGGTKLTVL
notes: as for B1
B6: ABL-CD3-72 (antibody, V domains shown)
VH: EVQLVESGGGLVKPGGSLRLSCAASGFTFSTYIMNWVRQAPGKGLEWVSSISSSRSYIYYADSVKGRFTISRDNAKNSLYLQMNSLRAEDTAVYYCAREDRYRLFFDYWGQGTLVTVSS
VL: NFMLTQPHSVSESPGKTVTISCTRSSGSIASNYVQWYQQRPGSSPTTVIYEDNQRPSGVPDRFSGSIDSSSNSASLTISGLKTEDEADYYCQSYDSSNRVFGGGTKLTVL
notes: as for B1

How the values were obtained:
[1] = biological target: T1, recombinant human CD3 epsilon/delta heterodimer (human, UniProt P07766 23-126; P04234 22-105); test: BLI (Octet), mAb 5 ug/mL on FAB2G sensor, hCD3 E/D 200-50 nM
T1 construct: Recombinant heterodimer used as analyte in Octet; also called hCD3 E/D; human CD3E/D
Method: (§1) Samples were evaluated by flow cytometry analysis against Jurkat and human Pan-T cells (FIG. 1B) as well as by Octet against recombinant human CD3 proteins to evaluate apparent affinities and binding off-rates (Table 6, infra).

[2] = biological target: T2, recombinant human CD3 epsilon/gamma heterodimer (human, UniProt P07766 23-126; P09693 23-116); test: BLI (Octet), mAb 5 ug/mL on FAB2G sensor, hCD3 E/G 200-50 nM;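 also: antibodies purified from hybridoma supernatants, measured by Octet binding to recombinant human CD3 protein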
T2 construct: Recombinant heterodimer used as analyte in Octet; also called hCD3 E/G
T2 sequence (P07766 23-126, chain 1 of 2): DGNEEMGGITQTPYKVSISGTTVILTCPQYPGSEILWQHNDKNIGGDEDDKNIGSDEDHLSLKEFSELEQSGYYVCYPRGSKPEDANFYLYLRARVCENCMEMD
T2 sequence (P09693 23-116, chain 2 of 2): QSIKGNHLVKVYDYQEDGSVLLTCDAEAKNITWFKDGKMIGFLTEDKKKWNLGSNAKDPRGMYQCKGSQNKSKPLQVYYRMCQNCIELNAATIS
Method: as §1

T1 sequence (P07766 23-126, stated change not applied, chain 1 of 2): as the sequence (P07766 23-126, chain 1 of 2) above
T1 sequence (P04234 22-105, stated change not applied, chain 2 of 2): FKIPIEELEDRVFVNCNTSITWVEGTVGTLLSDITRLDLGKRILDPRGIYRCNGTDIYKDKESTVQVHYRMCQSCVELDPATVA

Binder	Kd [1]	Response [1]	koff [1]	kon [1]	Kd [2]	Response [2]	koff [2]	kon [2]
B1	78.2 nM	0.41	0.0266 s⁻¹	341000 M⁻¹ s⁻¹	92.8 nM	0.09	0.0856 s⁻¹	923000 M⁻¹ s⁻¹
B2	47.1 nM	0.26	0.0101 s⁻¹	214000 M⁻¹ s⁻¹	4.87 nM	0.11	0.00339 s⁻¹	697000 M⁻¹ s⁻¹
B3	6.64 nM	0.56	0.000568 s⁻¹	85600 M⁻¹ s⁻¹	21.4 nM	0.5	0.00157 s⁻¹	73500 M⁻¹ s⁻¹
B4	58.8 nM	0.48	0.0102 s⁻¹	173000 M⁻¹ s⁻¹	55 nM	0.11	0.0329 s⁻¹	598000 M⁻¹ s⁻¹
B5	53.3 nM	0.58	0.00485 s⁻¹	90800 M⁻¹ s⁻¹	109 nM	0.26	0.0178 s⁻¹	163000 M⁻¹ s⁻¹
B6	109 nM	0.17	0.07 s⁻¹	641000 M⁻¹ s⁻¹	442 nM	0.09	0.211 s⁻¹	476000 M⁻¹ s⁻¹
